Measured values published in paper PMC3183022 (Molecular Biology of the Cell, 2011).

Columns and labels:
[1] = target: mouse retrolinkin amino-terminus (amino acids 31–460) fused to GST (mouse, UniProt Q8BHE4 31-460); assay: pull-down
[2] = target: His-tagged retrolinkin (aa 31–460) (mouse, UniProt Q8BHE4 31-460); assay: pull-down
Sequence of His-tagged retrolinkin (aa 31–460) (Q8BHE4 31-460): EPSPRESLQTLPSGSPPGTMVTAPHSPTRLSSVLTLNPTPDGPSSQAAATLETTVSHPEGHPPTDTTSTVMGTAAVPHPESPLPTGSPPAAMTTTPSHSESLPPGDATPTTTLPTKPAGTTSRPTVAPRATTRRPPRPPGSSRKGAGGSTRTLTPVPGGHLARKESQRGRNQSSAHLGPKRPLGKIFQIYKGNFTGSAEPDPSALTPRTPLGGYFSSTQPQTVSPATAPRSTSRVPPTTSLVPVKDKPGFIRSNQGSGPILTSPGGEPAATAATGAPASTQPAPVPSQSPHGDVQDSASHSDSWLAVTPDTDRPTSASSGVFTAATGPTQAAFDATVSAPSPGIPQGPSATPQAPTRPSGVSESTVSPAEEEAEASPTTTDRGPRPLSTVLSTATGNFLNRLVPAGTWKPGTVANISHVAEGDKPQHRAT

Sequence of mouse retrolinkin amino-terminus (amino acids 31–460) fused to GST (Q8BHE4 31-460): as above

Binder	binding result [1]	binding result [2]
recombinant His-tagged endophilin A1 (natural protein, mouse, UniProt Q62420 1-352, looked up) MSVAGLKKQFHKATQKVSEKVGGAEGTKLDDDFKEMERKVDVTSRAVMEIMTKTIEYLQPNPASRAKLSMINTMSKIRGQEKGPGYPQAEALLAEAMLKFGRELGDDCNFGPALGEVGEAMRELSEVKDSLDMEVKQNFIDPLQNLHDKDLREIQHHLKKLEGRRLDFDYKKKRQGKIPDEELRQALEKFDESKEIAESSMFNLLEMDIEQVSQLSALVQAQLEYHKQAVQILQQVTVRLEERIRQASSQPRREYQPKPRMSLEFATGDSTQPNGGLSHTGTPKPPGVQMDQPCCRALYDFEPENEGELGFKEGDIITLTNQIDENWYEGMLHGQSGFFPINYVEILVALPH	binds	–
GST-tagged endophilin A1 SH3 domain (aa 295–346) (domain or fragment) not shown	–	binds
